The values below come from article PMC6442418, “Pycnoporus cinnabarinus glyoxal oxidases display differential catalytic efficiencies on 5-hydroxymethylfurfural and its oxidized derivatives” (Fungal Biology and Biotechnology, 2019).

Holding throughout (experiment): purified protein
Format in all cases: biochemical, Trametes cinnabarina
Common to all, as to conditions: 50 mM sodium tartrate pH 6, 30 °C, HRP 8 U, 0.1 mM ABTS, 5 µM H2O2

Substrate in data set [1]: O=Cc1ccc(CO)o1
Substrate in data set [2]: O=Cc1ccc(C=O)o1
Substrate in data set [3]: OCC(O)CO
Substrate in data set [4]: CC(=O)C=O
Substrate in data set [5]: O=CC=O
Substrate in data set [6]: O=CC(=O)O

B1: PciGLOX2 (Trametes cinnabarina) (protein)
chain: APSTPTGWQFNLKAERSGIVALESIVVSPTLVVFFDRATNDPLQINNHSAWGALWNLETSTVRALDVLTNSFCASGALLSNGTMASIGGDPNGFPGNPAIHPGTQAIRLFEPCDSPTGEGCTLFEDPVTLHLLEKRWYPSSVRIFDGSLLIVGGMHEETPFYNTDPALSFEFFPPKESTPRPSEFLNRSLPANLFPRVFALPDGKVFMVANNQSIIYDIEANTERILPDIPNNVRVTNPIDGSAILLPLSPPDFVPEVLVCGGTQTDTIDPSLLTSQTPASSQCSRIRLDEEGIARGWEVEHMLEGRMMPELVHLPNGQVLIANGARTGFAAIASVSDPVGGSNADHAVLVPSLYTPDAPLGTRISNVGLPSSGIARVYHSSITLTPQGNFLIAGSNPNNNSSVTAGVKFPSEFRVQTLDPPFMFVERPKILSMPKKLAFGKSFTVPIAVPSTLAHPGAKVQVSLMDLGFSSHAFHSSARLVFMNAKISQDGKSLTFTTPPNGRVYPPGPATIFLTIDDVTSEGAWVMMGSGNPPPTLE
notes: secreted copper radical oxidase (AA5), heterologously produced in Aspergillus niger, purified
In general, Km refers to the substrate concentration at which the rate is half of its maximum. One may read the kcat as the number of substrate molecules converted per active site and unit of time at saturation. The term kcat/Km denotes the second-order rate constant that governs catalysis at low substrate concentration. Turning to B1, in the data set “purified protein [1]”, the Km stood at 5870 ± 2040 µM, the kcat was determined as 0.56 ± 0.09 s⁻¹ and the kcat/Km worked out at 96.04 ± 0.01 M⁻¹ s⁻¹. In addition, in “purified protein [2]”, the Km stood at 210 ± 40 µM, the kcat was found to be 4.8 ± 0.24 s⁻¹ and the kcat/Km was 23404 ± 0.01 M⁻¹ s⁻¹.

B2: PciGLOX3 (Trametes cinnabarina) (protein)
chain: APSAPGWSFDLKKETSGIVALEAIVVSPTLVVFFDRASDDPLQINNHSAWGALWNLESSTVRPLDVLTNSFCASGALLSNGTMASVGGDPDGFVGNPAIRPGNQAIRLFEPCDSPTGDGCTLFEDPATLHLLEKRWYPSSARIFDGSLIIVGGMHEATPFYNTDPALSFEFFPRKEDTPRPSEFLNRSLPANLFPRVFALPDGKVFMVANNQSIIYDIEAKTERILPDVPNNVRVTNPMDGSAILLPLSPPDFVPEVLVCGGSQTDTIDPSLLTSQTPASSQCSRIRLDEEGIAKGWEVEHMLEGRIMPELVHLPNGQVLIANGGRTGFAAIASVSEPVGNSNADHPVLVPSLYTPDAPLGRRISNVGLPSSGIPRLYHSSVTLTPQGNFLIAGSNPNNRTTVGPGIKFPSEFRVQTLDPPFMSVERPKILNMPKKLGFNKSFTVPISVPSSLARPGAKVQISLMDLGFSSHAFHSSARLVFMNGKISQDSKSLTFTTPPNGRVYPPGPATVFLTIDDVTSEGAWVMMGSGNSPPTLE
notes: as for B1
As for B2, the Km in the data set “purified protein [3]” is 5500 µM; in “purified protein [4]”, 100 µM; in the data set “purified protein [5]”, 700 µM; in “purified protein [1]”, 6350 ± 1320 µM; in “purified protein [6]”, 500 µM; in “purified protein [2]” it was 180 ± 50 µM. Also, the kcat in “purified protein [1]” worked out at 0.75 ± 0.07 s⁻¹; in the data set “purified protein [2]” it was 1.28 ± 0.09 s⁻¹. Also, the kcat/Km in “purified protein [1]” turned out to be 118.35 ± 0.01 M⁻¹ s⁻¹; in the data set “purified protein [2]” it was 7267.7 ± 0.01 M⁻¹ s⁻¹.

B3: PciGLOX1 (Trametes cinnabarina) (protein)
chain: APSAPGWRFDLKAERSGIVALESIVVSPTLVLWFDRASDDPLQINNHSAWGALWNLETSTVRPLNVLTNSFCASGALLSNGSMASVGGDPRGFPGNPAINPGNQAIRIFEPCASPTGDGCTVFEDPQTLHLLEDRWYPSSIRIFDGSLLIVGGTHVNENFYNLHPANSFEFFPPKESTPRPSAFLERSLPANLFPRIFALPDGKVFMVANNQSIIYDIEANTERILPDIPNNVRVTNPIDGSAILLPLTPPDYIPEVLVCGGTSTDPLDPSLLSSQTPATTQCSRIRLDEEGIAKGWQVEHMLEPRTMPELVHIPNGQILIANGARTGFAAIKQVQDPIGNSNSDHAVLVPSIYTPDAPLGQRISNAGMPSSGIARVYHSSITLTPQGNFLIAGSNPNGNTTVGPGVKFPSEFRVQTLDPPFMFVERPKILNTPEKLAFNKTFTVPISVPSTLASPGAKVQVSLMDLGFSSHAFHSSARLVFMDATISRDRRSLTFTTPPNGRVFPPGPATVFLTIDGVTSEGAWVMMGSGNSPPTLE
notes: as for B1
With B3, in “purified protein [1]”, the Km was found to be 15660 ± 2350 µM, the turnover number (kcat) was determined as 1.59 ± 0.12 s⁻¹ and the kcat/Km stood at 101.66 ± 0.01 M⁻¹ s⁻¹. Also, in “purified protein [2]”, the Km came out at 4380 ± 100 µM, the kcat was found to be 0.54 ± 0.24 s⁻¹ and the specificity constant (kcat/Km) amounted to 124.39 ± 0.01 M⁻¹ s⁻¹.
